Results taken from US20040018957A1, “Crystal structure of a Ras-P13K complex” (priority 2000, published 2004).

Experiments:
[1] = target: T1, PI3K (Homo sapiens, UniProt P48736); assay: Steady state and kinetic measurements of mant-ATP and mant-ADP binding; conditions: FIG. 2C
T1 construct: a construct containing residues 144-1102 of the human PI3Kγ with a C-terminal His6 tag; His6 (C); made in house; host or cells: Sf9 insect cells (baculovirus, pVL1393)
Protocol: Equilibrium binding of mant-ATP to PI3K was measured in a SLM 8000 S spectrofluorimeter with λex=280 nm and […]. This allowed monitoring of energy transfer from tryptophan in the PI3K to mant-ATP. Mant-ATP was titrated into a 1 μM solution of PI3K in running buffer. Each data point represents the average of data collected for 30 seconds with a 1 second integration time. For data collected in the presence of Ras, the solution also contained 6 μM H-ras.GMPPNP. The data were fitted to the binding equation with Kaleidagraph.
All kinetic data were collected in a Hi-Tech Na61 instrument set up in the single push mode with λex=280 nm and emission monitored with 399 nm cutoff filters. A solution of PI3K was mixed a solution of mant-ATP such that the final PI3K concentration was 1 μM and the ATP concentrations were 2.5, 5. 7.5, 10, 12.5, and 25 μM. The displacement experiment was carried out by mixing 1 μM PI3K and 2 μM mant-ATP with 50 or 200 μM ATP. Curve fits were carried out with the Hi-Tech software and Kaleidagraph. Equilibrium and kinetic data for mant-ADP were collected by the same methods.

[2] = target: wild type H-Ras (Homo sapiens, UniProt P01112); assay: Fluorescence anisotropy titration of PI3Kγ with H-Ras; format: binding
Chain of wild type H-Ras (P01112 whole entry): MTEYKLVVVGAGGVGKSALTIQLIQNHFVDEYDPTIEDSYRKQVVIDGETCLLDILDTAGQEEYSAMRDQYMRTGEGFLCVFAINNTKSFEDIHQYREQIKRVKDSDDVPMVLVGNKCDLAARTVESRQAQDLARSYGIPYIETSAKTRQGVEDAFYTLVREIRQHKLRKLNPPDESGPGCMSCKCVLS
Chain of wild type H-Ras (P48736 144-1102 partner limits assumed): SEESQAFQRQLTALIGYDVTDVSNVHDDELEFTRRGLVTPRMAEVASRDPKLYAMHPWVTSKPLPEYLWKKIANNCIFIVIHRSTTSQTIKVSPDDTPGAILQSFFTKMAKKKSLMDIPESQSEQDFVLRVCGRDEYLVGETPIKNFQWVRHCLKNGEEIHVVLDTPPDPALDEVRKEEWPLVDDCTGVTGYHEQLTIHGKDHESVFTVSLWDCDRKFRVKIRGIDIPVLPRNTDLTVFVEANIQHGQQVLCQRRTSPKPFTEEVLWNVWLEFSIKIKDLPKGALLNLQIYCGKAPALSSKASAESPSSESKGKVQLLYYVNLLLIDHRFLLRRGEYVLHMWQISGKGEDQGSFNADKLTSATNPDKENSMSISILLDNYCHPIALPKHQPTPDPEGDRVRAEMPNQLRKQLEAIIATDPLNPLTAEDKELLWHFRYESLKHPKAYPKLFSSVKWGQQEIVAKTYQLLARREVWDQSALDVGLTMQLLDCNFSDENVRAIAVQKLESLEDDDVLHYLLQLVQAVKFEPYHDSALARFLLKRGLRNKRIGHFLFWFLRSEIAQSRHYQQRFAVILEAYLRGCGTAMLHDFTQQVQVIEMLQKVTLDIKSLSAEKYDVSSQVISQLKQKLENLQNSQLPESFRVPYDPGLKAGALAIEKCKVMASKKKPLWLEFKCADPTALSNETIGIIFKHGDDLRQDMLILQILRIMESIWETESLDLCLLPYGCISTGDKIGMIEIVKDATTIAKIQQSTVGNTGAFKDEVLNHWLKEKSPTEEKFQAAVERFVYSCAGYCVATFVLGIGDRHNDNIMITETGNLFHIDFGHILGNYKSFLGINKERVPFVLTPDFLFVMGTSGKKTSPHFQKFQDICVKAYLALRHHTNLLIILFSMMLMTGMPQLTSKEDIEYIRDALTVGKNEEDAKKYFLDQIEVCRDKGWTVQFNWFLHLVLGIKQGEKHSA
Protocol: (§1) Mant-nucleotides were synthesised as described previously (Jameson and Eccleston, 1997). N-Ras and H-Ras mutants were loaded with mant-GMPPNP as in (Moore et al., 1993), gel filtered into running buffer (20 mM Tris pH 7.5, 2 mM MgCl2, 1 mM DTT), and frozen at −80° C. The concentration of Ras.mant-GMPPNP was determined by measuring the absorbance of the mant group at […] with ε=5700 M^−1 cm^−1 (Hiratsuka, 1983). For binding assays, the 144-1102 human PI3Kγ was titrated into a 1 μM solution of fill length, unmodified N-Ras.mant-GMPPNP. Data were collected with SLM 8000 S and ISS PC1 spectrofluorimeters, set up in the T-format and L-format, respectively, with prism polarizers. All measurements were taken at 20° C. with a λex of 366 nm. Both emission PMTs were fitted with 399 nm cutoff filters. Five measurements of each data point were obtained and averaged. Data were fitted to the binding equation.

[3] = target: N-Ras.GDP (Homo sapiens, UniProt P01111); assay: Binding of PI3Kγ constructs to N-Ras.GDP
Chain of N-Ras.GDP (P01111 whole entry): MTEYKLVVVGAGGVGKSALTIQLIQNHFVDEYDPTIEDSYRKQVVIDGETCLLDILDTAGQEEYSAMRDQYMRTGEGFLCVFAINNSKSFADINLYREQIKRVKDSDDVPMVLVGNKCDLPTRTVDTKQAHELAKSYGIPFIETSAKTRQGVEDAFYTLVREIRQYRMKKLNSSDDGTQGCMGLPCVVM

[4] = target: T2, N-Ras.mant-GMPPNP (Homo sapiens, UniProt P01111); assay: Fluorescence anisotropy titration of PI3Kγ 144-1102 into N-Ras.mant-GMPPNP; format: binding; conditions: fluorescence anisotropy, 20° C., 1 μM N-Ras.mant-GMPPNP
T2 construct: fluorescence anisotropy of full length, unmodified N-Ras.mant-GMPPNP
Protocol: as §1
Target sequence in this assay (P01111 whole entry): as above

[5] = target: T2, N-Ras.mant-GMPPNP; assay: Stopped flow anisotropy, association and dissociation kinetics; format: binding; conditions: 20° C.
Protocol: A Hi-Tech MX61 instrument (Hi-Tech, Salisbury) set up in the T-format with prism polarizers was used to collect data at 20° C. The mant group was excited at 366 nm and emission monitored through 399 nm cutoff filters. The association kinetics were followed by rapid mixing of PI3Kγ with 1 μM N-Ras.mant-GMPPNP under pseudo first-order conditions (PI3Kγ in large excess). Specifically, equal proportions of N-Ras and PI3Kγ were mixed to a final Ras concentration of 1 μM and final PI3Kγ concentrations of 5 and 10 μM. The dissociation rate was measured by mixing a solution of 1 μM N-Ras.mant-GMPPNP and 5 μM PI3K with 9 μM N-Ras.GMPPNP. Attempts to determine association rates at higher PI3K concentrations were limited by solubility of the protein. Data were fitted to single exponential curves within the Hi-Tech software.
Target sequence in this assay (P01111 whole entry): as above
Target sequence in this assay (P48736 144-1102 partner limits assumed): as the sequence (P48736 144-1102 partner limits assumed) above

T1 sequence (P48736 144-1102): as the sequence (P48736 144-1102 partner limits assumed) above

Substance	nucleotide release from PI3Kγ [1]	Kd [2]	binding to N-Ras.GDP [3]	Kd [4]	observed rate constant of the Ras.PI3K complex (single-exponential fit) [5]
mant-ADP	slower than mant-ATP release	–	–	–	–
wild type PI3Kγ: residues 144-1102 of human PI3Kγ with a C-terminal His6 tag	–	3200 ± 500 nM	Neither the wild-type protein, the pseudo wild-type (V327A, see methods), nor the V223K mutant exhibit detectable binding	2800 ± 400 nM	18 s⁻¹
